From patent US20260125468A1 (NONA BIOSCIENCES SUZHOU, published 2026)
Where a chain is given by its changes, count along the chain named. Numbers in names are those of the source.

B1: PR008551, anti-B7H4xCD3 VH(3G11)-Fc-scFv(PR003366), hIgG1(dCH1, KiH, AAA) (bispecific antibody)
chain 1: RVHLAESGGGLVQAGGSLRLSCAASGSRLNDNAMAWFRQAPGKEREFVGSIFWTGGNTYYADAVKGRLTISRDNAKNALYLQMNSLKPEDTAVYYCAASRVVWYYCSGYGCSRAGDYVYWGQGTQVTVSSASEPKSSDKTHTCPPCPAPEAAGAPSVFLFPPKPKDTLMISRTPEVTCVVVDVSHEDPEVKFNWYVDGVEVHNAKTKPREEQYNSTYRVVSVLTVLHQDWLNGKEYKCKVSNKALPAPIEKTISKAKGQPREPQVYTLPPCREEMTKNQVSLWCLVKGFYPSDIAVEWESNGQPENNYKTTPPVLDSDGSFFLYSKLTVDKSRWQQGNVFSCSVMHEALHNHYTQKSLSLSPGK
chain 2: EIVMTQSPASLSVSPGERATLSCRASQSVSSNLAWYQQKPGQAPRLLIYGASTRATGIPARVSGGGSGTEFTLTISSLQSEDFAVYYCQQYKNWPFTFGPGTKLEIKGGGGSGGGGSGGGGSGGGGSQVQLVQSGAEVKKPGSSMRVSCKASEDTFSSYAISWVRQAPGQGLEWMGGTAPIFGTTNYAQKFQGRVTITADKSTSTAYMELSSLRSEDTAVYYCARGGPYFDYWGQGTLVTVSSASEPKSSDKTHTCPPCPAPEAAGAPSVFLFPPKPKDTLMISRTPEVTCVVVDVSHEDPEVKFNWYVDGVEVHNAKTKPREEQYNSTYRVVSVLTVLHQDWLNGKEYKCKVSNKALPAPIEKTISKAKGQPREPQVCTLPPSREEMTKNQVSLSCAVKGFYPSDIAVEWESNGQPENNYKTTPPVLDSDGSFFLVSKLTVDKSRWQQGNVFSCSVMHEALHNHYTQKSLSLSPGK
B2: PR006002, anti-B7H4xCD3 VH(A1)-Fc-scFv(PR003366), hIgG1(dCH1, KiH, LALA) (bispecific antibody)
chain 1: not shown
chain 2: B1 chain 2 with A267G
B3: PR010982, anti-B7H4xCD3 S135-Fc-scFv(PR003366), hIgG1(dCH1, KIH, AAA) (bispecific antibody)
chain 1: EVQLLESGGGLVQPGGSLRLSCAASGRTSGIPAMSWVRQAPGKGLEWVAMAWSGGGTIYADSVKGRFTISRDNSKNTLYLQMNSLRAEDTAVYYCAAGRSTSNRADQYNYWGQGTLVTVSSASEPKSSDKTHTCPPCPAPEAAGAPSVFLFPPKPKDTLMISRTPEVTCVVVDVSHEDPEVKFNWYVDGVEVHNAKTKPREEQYNSTYRVVSVLTVLHQDWLNGKEYKCKVSNKALPAPIEKTISKAKGQPREPQVYTLPPCREEMTKNQVSLWCLVKGFYPSDIAVEWESNGQPENNYKTTPPVLDSDGSFFLYSKLTVDKSRWQQGNVFSCSVMHEALHNHYTQKSLSLSPGK
chain 2: B1 chain 2
B4: PR010983, anti-B7H4xCD3 S136-Fc-scFv(PR003366), hIgG1(dCH1, KIH, AAA) (bispecific antibody)
chain 1: B3 chain 1 with G44E, L45R, W47F, L116Q
chain 2: B1 chain 2
B5: PR010984, anti-B7H4xCD3 S137-Fc-scFv(PR003366), hIgG1(dCH1, KIH, AAA) (bispecific antibody)
chain 1: B3 chain 1 with G44E, L45R, W47F, R104Y, L116Q
chain 2: B1 chain 2
B6: PR010985, anti-B7H4xCD3 S138-Fc-scFv(PR003366), hIgG1(dCH1, KIH, AAA) (bispecific antibody)
chain 1: B3 chain 1 with R104Y
chain 2: B1 chain 2
B7: PR010987, anti-B7H4xCD3 S140-Fc-scFv(PR003366), hIgG1(dCH1, KIH, AAA) (bispecific antibody)
chain 1: B3 chain 1 with L5V, S35A, V37F, A97R
chain 2: B1 chain 2
B8: PR003733, anti-B7H4xCD3 Fab(PR001848)-Fc-scFv(PR003366), hIgG1(KiH, LALA) (bispecific antibody)
heavy: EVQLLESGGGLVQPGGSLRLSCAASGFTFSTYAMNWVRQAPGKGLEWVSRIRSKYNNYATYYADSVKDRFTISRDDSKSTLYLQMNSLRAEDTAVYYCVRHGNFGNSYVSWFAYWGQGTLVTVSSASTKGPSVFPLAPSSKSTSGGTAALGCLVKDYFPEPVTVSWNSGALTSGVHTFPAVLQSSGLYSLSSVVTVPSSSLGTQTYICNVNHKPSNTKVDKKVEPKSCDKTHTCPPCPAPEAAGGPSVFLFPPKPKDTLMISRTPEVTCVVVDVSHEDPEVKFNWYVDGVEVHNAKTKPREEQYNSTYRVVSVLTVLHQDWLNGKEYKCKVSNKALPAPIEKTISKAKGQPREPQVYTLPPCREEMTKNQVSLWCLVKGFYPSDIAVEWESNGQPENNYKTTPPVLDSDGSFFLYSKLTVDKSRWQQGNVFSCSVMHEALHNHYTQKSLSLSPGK
light: QAVVTQEPSLTVSPGGTVTLTCRSSTGAVTTSNYANWVQQKPGQAPRGLIGGTNKRAPWTPARFSGSLLGDKAALTLLGAQPEDEAEYFCALWYSNLWVFGGGTKLTVLGQPKAAPSVTLFPPSSEELQANKATLVCLISDFYPGAVTVAWKADSSPVKAGVETTTPSKQSNNKYAASSYLSLTPEQWKSHRSYSCQVTHEGSTVEKTVAPTECS
chain: B1 chain 2 with A267G
B9: PR003899, anti-B7H4xCD3 Fab(PR003886)-Fc-scFv(PR003366), hIgG1(KIH, LALA) (bispecific antibody)
heavy: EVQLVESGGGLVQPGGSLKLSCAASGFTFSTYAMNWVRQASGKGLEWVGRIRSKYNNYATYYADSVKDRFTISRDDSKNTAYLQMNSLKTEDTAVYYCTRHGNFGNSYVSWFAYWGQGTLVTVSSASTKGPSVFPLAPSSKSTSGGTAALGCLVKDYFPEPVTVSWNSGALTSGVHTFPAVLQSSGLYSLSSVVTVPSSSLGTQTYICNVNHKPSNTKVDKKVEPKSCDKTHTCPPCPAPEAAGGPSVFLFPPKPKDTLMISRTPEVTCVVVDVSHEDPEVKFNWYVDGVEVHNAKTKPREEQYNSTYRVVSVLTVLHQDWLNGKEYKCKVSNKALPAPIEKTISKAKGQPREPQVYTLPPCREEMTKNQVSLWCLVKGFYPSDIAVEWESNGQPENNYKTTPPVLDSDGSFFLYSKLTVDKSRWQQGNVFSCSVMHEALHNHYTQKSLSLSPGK
light: B8 light
chain: B1 chain 2 with A267G
B10: PR006003, anti-B7H4xCD3 VH(E2)-Fc-scFv(PR003366), hIgG1(dCH1, KiH, LALA) (bispecific antibody)
chain 1: not shown
chain 2: B1 chain 2 with A267G
B11: PR006370, anti-CD3 SP34 chimeric hIgG1(AAG) (antibody, V domains shown)
VH: EVQLVESGGGLVQPKGSLKLSCAASGFTFNTYAMNWVRQAPGKGLEWVARIRSKYNNYATYYADSVKDRFTISRDDSQSILYLQMNNLKTEDTAMYYCVRHGNFGNSYVSWFAYWGQGTLVTVSA
VL: QAVVTQESALTTSPGETVTLTCRSSTGAVTTSNYANWVQEKPDHLFTGLIGGTNKRAPGVPARFSGSLIGDKAALTITGAQTEDEAIYFCALWYSNLWVFGGGTKLTVLG
notes: Mouse/human chimeric antibody, human IgG1 Fc-silent variant (L234A, L235A, P329G)
B12: PR011628, anti-CD3 S135 HCAb hIgG1(C220S,AAG) (antibody, V domains shown)
VH: EVQLLESGGGLVQPGGSLRLSCAASGRTSGIPAMSWVRQAPGKGLEWVAMAWSGGGTIYADSVKGRFTISRDNSKNTLYLQMNSLRAEDTAVYYCAAGRSTSNRADQYNYWGQGTLVTVSS
notes: Humanized variant of PR006364; heavy-chain-only antibody
B13: PR011629, anti-CD3 S136 HCAb hIgG1(C220S,AAG) (antibody, V domains shown)
VH: B12 VH with G44E, L45R, W47F, L116Q
notes: as for B12
B14: PR011630, anti-CD3 S137 HCAb hIgG1(C220S,AAG) (antibody, V domains shown)
VH: B12 VH with G44E, L45R, W47F, R104Y, L116Q
notes: as for B12
B15: PR011631, anti-CD3 S138 HCAb hIgG1(C220S,AAG) (antibody, V domains shown)
VH: B12 VH with R104Y
notes: as for B12
B16: PR011632, anti-CD3 S140 HCAb hIgG1(C220S,AAG) (antibody, V domains shown)
VH: B12 VH with L5V, S35A, V37F, A97R
notes: as for B12

Legend:
[1] = target: T1, CD3 on human T cells (human PBMCs or isolated T cells used as effector cells) (human, UniProt P07766 23-207; P04234 22-171; P09693 23-182); experiment: cell-based or functional assay
[2] = target: T1, CD3 on human T cells (human PBMCs or …); experiment: cell-based or functional assay; remark: listed apart in the source
[3] = target: T2, hCD3e&d-his, Human CD3 epsilon & CD3 delta Heterodimer Protein with His Tag (Acro Biosystems, CDD-H52W1) (Human, UniProt P07766 23-126; P04234 22-105); experiment: ELISA, plate coated with human CD3e&d-his at 1 µg/mL, anti-human IgG Fc-HRP [B]
T2 construct: Bought protein; also called human CD3E&D heterodimer protein; not shown: His Tag fused to C-terminus of CD3 epsilon chain
Procedure: (§1) ELISA assays were conducted as briefly described: CD3 proteins were coated onto ELISA plates at 1 μg/mL; testing antibodies OKT3 and PR006364 (A1-HCAb) were diluted from 2 μg/mL to 8 different concentrations by 3-fold serial dilution, or testing antibodies PR006370 (SP34) and PR010991 (3G11-HCAb) were diluted from 100 nM to 11 different concentrations by 2-fold serial dilution; secondary antibody (anti-human IgG Fc-HRP) was used to detect PR006364, PR006370 and PR010991, and secondary antibody (anti-mouse IgG Fc-HRP) was used to detect OKT3 binding signal. The absorption signal at 450 nm (OD450) was recorded by plate reader (Molecular Devices, SpectraMax), and the data were processed and non-linear curve fitting analyzed by GraphPad Prism 8.

[4] = target: T3, cynoCD3e&d-his, Cynomolgus CD3 epsilon & CD3 delta Heterodimer Protein (Acro Biosystems, CDD-C52W4) (Cynomolgus, UniProt Q95LI5 22-117; Q95LI8 22-105); experiment: ELISA, plate coated with cyno CD3e&d-his at 1 µg/mL, anti-human IgG Fc-HRP [C]
T3 construct: Bought protein; also called cynomolgus CD3E&D heterodimer protein; not shown: His Tag fused to C-terminus of CD3 epsilon chain; Flag Tag fused to C-terminus of CD3 delta chain
Procedure: as §1

[5] = target: T4, hCD3e-his, Human CD3 epsilon Protein with His Tag (Acro Biosystems, CDE-H5223) (Human, UniProt P07766 23-126); experiment: ELISA, plate coated with human CD3e-his at 1 µg/mL, anti-human IgG Fc-HRP [E]
T4 construct: Bought protein; also called human CD3E monomeric protein; monomeric CD3E; not shown: His Tag
Procedure: as §1

[6] = target: T5, hCD3e&g-his, Human CD3 epsilon & CD3 gamma Heterodimer Protein with His Tag (Acro Biosystems, CDG-H52W5) (Human, UniProt P07766 23-126; P09693 23-116); experiment: ELISA, plate coated with human CD3e&g-his at 1 µg/mL, anti-human IgG Fc-HRP [D]
T5 construct: Bought protein; also called human CD3E&G heterodimer protein; not shown: His Tag fused to C-terminus of CD3 epsilon chain
Procedure: as §1

[7] = target: human CD3E&D heterodimer protein (construct not specified; FIG. 9A and FIG. 12) (human, UniProt P07766 23-126; P04234 22-105); experiment: ELISA on coated human CD3e&d heterodimer protein (construct not named on the sheet)
[8] = target: T6, Biotinylated human CD3e&d protein (Acro Biosystems, CDD-H82W6) (human, UniProt P07766 23-126; P04234 22-105, biotinylated protein; chain and site not stated); experiment: BLI (Octet RED96e), biotinylated antigen on SA biosensors, antibody 0.375-12 nM
T6 construct: Bought protein loaded on SA Octet biosensors; also called human CD3 protein
Procedure: To determine the binding affinities of anti-CD3 antibodies to human or cynomolgus monkey CD3e&d heterodimer proteins, bio-layer interferometry (BLI) assays were carried out by using Octet® RED96e.
Biotinylated human CD3e&d protein (Acro Biosystems, CDD-H82W6) or biotinylated cynomolgus CD3e&d protein (Acro Biosystems, CDD-C82W6) was first loaded onto the surface of SA Octet biosensors (Sartorius, 18-5019) to reach capture levels between 0.5-0.8 nm. The loaded biosensors were then dipped in wells containing 2-fold serial dilutions of testing antibodies to detect association signals, followed by dissociation steps in wells containing kinetic buffer. The association phase was 180 seconds, and the dissociation phase was 900 seconds. The sensorgrams were recorded, and the reference signals were subtracted before curve fitting using ForteBio Data Analysis 11.0 software. Association rates (kon) and dissociation rates (koff) were calculated using a simple one-to-one Langmuir binding model. The equilibrium dissociation constant (KD) was calculated as the ratio of koff/kon.

T6 sequence (P07766 23-126, chain 1 of 2): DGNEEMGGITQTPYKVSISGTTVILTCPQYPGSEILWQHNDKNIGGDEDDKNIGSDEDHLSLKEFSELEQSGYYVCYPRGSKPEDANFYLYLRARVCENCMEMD
T6 sequence (P04234 22-105, chain 2 of 2): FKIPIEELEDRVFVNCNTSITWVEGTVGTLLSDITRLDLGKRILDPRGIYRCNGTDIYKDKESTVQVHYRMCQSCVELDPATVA
human CD3E&D heterodimer protein (construct not specified; FIG. 9A and FIG. 12), sequence (P07766 23-126, chain 1 of 2): as the sequence (P07766 23-126, chain 1 of 2) above
human CD3E&D heterodimer protein (construct not specified; FIG. 9A and FIG. 12), sequence (P04234 22-105, chain 2 of 2): as the sequence (P04234 22-105, chain 2 of 2) above
T1 sequence (P07766 23-207, chain 1 of 3): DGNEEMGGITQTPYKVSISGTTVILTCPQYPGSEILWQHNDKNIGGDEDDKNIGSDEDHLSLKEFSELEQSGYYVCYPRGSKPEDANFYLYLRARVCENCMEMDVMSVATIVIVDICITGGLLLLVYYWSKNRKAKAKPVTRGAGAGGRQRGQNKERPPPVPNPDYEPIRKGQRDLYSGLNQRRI
T1 sequence (P04234 22-171, chain 2 of 3): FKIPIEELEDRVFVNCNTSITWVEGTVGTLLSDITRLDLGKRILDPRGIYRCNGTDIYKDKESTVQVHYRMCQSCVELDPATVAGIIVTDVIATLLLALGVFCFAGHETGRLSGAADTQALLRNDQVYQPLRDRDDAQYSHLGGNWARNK
T1 sequence (P09693 23-182, chain 3 of 3): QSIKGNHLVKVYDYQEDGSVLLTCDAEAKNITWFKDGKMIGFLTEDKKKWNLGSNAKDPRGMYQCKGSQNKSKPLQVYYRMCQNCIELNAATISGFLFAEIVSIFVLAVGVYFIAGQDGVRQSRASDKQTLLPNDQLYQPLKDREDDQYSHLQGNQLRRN
T3 sequence (Q95LI5 22-117, stated change not applied, chain 1 of 2): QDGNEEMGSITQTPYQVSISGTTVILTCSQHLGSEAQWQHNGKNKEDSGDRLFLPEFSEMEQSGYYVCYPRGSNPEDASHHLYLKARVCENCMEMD
T3 sequence (Q95LI8 22-105, stated change not applied, chain 2 of 2): as the sequence (P04234 22-105, chain 2 of 2) above, with I5V, N15K, I20V, S32T, D33N, I34N, T64A, S74N, V83L counted along it
T5 sequence (P07766 23-126, chain 1 of 2): as the sequence (P07766 23-126, chain 1 of 2) above
T5 sequence (P09693 23-116, chain 2 of 2): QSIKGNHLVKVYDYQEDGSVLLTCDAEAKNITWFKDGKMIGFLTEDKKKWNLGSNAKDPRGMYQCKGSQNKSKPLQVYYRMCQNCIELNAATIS
T4 sequence (P07766 23-126 limits assumed): as the sequence (P07766 23-126, chain 1 of 2) above
T2 sequence (P07766 23-126, stated change not applied, chain 1 of 2): as the sequence (P07766 23-126, chain 1 of 2) above
T2 sequence (P04234 22-105, stated change not applied, chain 2 of 2): as the sequence (P04234 22-105, chain 2 of 2) above

Row | Binder | EC50 of T cell-mediated cytotoxicity to MDA-MB-468 (RTCA) [1] | Max cytotoxicity (%) of T cell-mediated cytotoxicity to MDA-MB-468 (RTCA) [1] | EC50 of T cell-mediated cytotoxicity to MDA-MB-468 (RTCA, human T cells, E:T 10:1) [2] | further results
1 | B1 | 15.2 nM | 90.7% | – | –
2 | B2 | 0.033 nM | 94.4% | 0.00111 nM | –
3 | B3 | – | – | 0.247 nM | –
4 | B4 | – | – | 0.0602 nM | –
5 | B5 | – | – | 0.576 nM | –
6 | B6 | – | – | 2.91 nM | –
7 | B7 | – | – | 0.263 nM | –
8 | B8 | 0.0248 nM | 95.2% | – | –
9 | B9 | 0.112 nM | 96.3% | – | –
10 | B10 | 0.0465 nM | 95.1% | – | –
11 | B11 | – | – | – | EC50 (read off the curve) [3]: ~0.6 nM; EC50 (read off the curve) [4]: ~0.7 nM; EC50 (read off the curve) [5]: ~0.8 nM; EC50 (read off the curve) [6]: ~0.8 nM
12 | B12 | – | – | – | binding result [7]: binds
13 | B13 | – | – | – | Kd [8]: 0.168 nM; koff [8]: 0.00014 s⁻¹; kon [8]: 833000 M⁻¹ s⁻¹
14 | B14 | – | – | – | binding result [7]: binds
15 | B15 | – | – | – | binding result [7]: binds
16 | B16 | – | – | – | binding result [7]: binds
